Several values for one entry are separate records, joined by “and”; a condition that tells them apart may be missing. Equal entries are not always repeated.
Target: T1, CD36 (His-tagged recombinant human protein, Sino Biological, Life technologies, 70-80 kDa) (human, UniProt P16671 30-439)
T1 construct: CD36, class B scavenger receptor, human, recombinant; also called Human recombinant CD36
Experiment: SPR; Biacore T100; CD36 immobilized by amine coupling on a C1 chip (1000 RU); S100A12 species as analyte 0.62-50.0 nM, single cycle kinetics, 30 µL/min, 25 °C; HBS-P+ with 350 µM CaCl2; two-state reaction model
Conditions: both partners purified

T1 sequence (P16671 30-439): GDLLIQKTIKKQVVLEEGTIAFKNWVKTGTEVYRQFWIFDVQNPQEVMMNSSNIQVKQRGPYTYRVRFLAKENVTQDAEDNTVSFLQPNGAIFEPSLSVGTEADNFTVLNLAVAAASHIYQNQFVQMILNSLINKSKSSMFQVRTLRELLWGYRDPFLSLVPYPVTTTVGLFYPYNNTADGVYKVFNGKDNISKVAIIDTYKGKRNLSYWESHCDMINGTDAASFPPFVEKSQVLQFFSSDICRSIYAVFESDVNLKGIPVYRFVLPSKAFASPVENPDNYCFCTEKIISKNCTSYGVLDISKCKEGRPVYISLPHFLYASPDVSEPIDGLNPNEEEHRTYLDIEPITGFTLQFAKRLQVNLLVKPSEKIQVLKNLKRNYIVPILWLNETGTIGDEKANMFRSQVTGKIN

Kd: 1.04 nM and 0.9 nM
B1: commercially available native human S100A12 protein (nS100A12) (natural protein, UniProt P80511 1-92, looked up)
chain: MTKLEEHLEGIVNIFHQYSVRKGHFDTLSKGELKQLLTKELANTIKNIKDKAVIDEIFQGLDANQDEQVDFQEFISLVAIALKAAHYHTHKE
notes: S100A12, human, untagged; Called 'native' in the methods and 'untagged recombinant' in the results; also called human, untagged recombinant nS100A12

Source: article PMC5241339, “Insights into binding of S100 proteins to scavenger receptors: class B scavenger receptor CD36 binds S100A12 with high affinity” (Amino Acids, 2016)
